Assay results: US20090264512, “NUCLEIC ACID LIGANDS CAPABLE OF BINDING TO […] OR INTERNALIN A” (published 2009)

Assays:
[1] = target: T1, Internalin A (InlA) (Listeria monocytogenes, UniProt P0DJM0 P0DJM0:36-770); experiment: competition; competitive ELISA, sigmoidal fit; conditions: tags: His-tag
T1 sequence: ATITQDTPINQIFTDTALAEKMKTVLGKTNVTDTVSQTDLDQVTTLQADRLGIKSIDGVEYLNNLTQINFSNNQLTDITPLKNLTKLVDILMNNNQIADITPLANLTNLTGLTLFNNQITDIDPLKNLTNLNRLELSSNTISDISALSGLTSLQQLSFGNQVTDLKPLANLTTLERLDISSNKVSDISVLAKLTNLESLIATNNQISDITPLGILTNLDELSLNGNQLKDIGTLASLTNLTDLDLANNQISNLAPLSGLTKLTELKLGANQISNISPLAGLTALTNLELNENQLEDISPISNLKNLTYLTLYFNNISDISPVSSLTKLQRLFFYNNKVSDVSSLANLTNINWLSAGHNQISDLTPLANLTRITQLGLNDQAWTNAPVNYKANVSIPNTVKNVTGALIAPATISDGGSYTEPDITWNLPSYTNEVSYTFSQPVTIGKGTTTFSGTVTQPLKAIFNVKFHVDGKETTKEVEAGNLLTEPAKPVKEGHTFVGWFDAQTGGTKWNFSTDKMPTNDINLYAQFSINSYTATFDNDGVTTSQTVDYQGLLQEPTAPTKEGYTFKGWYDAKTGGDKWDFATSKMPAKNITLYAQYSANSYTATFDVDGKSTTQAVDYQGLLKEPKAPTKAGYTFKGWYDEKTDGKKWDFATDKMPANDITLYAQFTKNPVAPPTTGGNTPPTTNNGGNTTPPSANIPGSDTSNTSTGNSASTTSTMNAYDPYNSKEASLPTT
Experimental: A specified amount of internalin A (500 ng) was coated on the plate. 5 ng/uL biotinylated aptamer A8 (SEQ ID NO:21) was incubated with increasing amounts of non-biotinylated aptamer A8 and then applied to the coated plates. Using GraphPad Prism 4 software, the Sigmoidal model (equation: a+(b−a)/(1+10̂(x−c))) was used to determine EC50.

[2] = target: T1, Internalin A (InlA); experiment: ELONA; strong ELISA signal compared to library; conditions: tags: His-tag
Experimental: A nickel-coated microplate (HisSorb, Qiagen) was used to bind 500 ng his-tagged inlA, peptide D or 0610 (Listeria monocytogenes-specific non-internalin cell wall protein) to the plate as per manufacturer's directions. Biotinylated aptamer or aptamer library (5 ng/μL) was heated to 95° C. for 3 minutes and quickly cooled to 4° C. for 5 minutes before application to each well. The biotinylated aptamer or aptamer library was incubated with the bound proteins in the HisSorb plate overnight at 4° C. with gentle shaking. Wells were then washed four times with 200 μL PBS-T. Streptavidin-horseradish peroxidase was added to the wells for 30 minutes at room temperature with gentle shaking. The wells were washed as described previously before development with TMB (Pierce). The reactions were stopped with 1M H₂SO₄ and absorbance was measured at 450 nm using a ThermoMax microplate reader (Molecular Devices). In FIG. 6, the initial aptamer library was used as a negative control, and the data represents the average±S.D. of n=3. […] The amount of selected aptamer bound to the particular proteins was determined by absorbance measured. The data represents the average±S.D. of n=3.

Row | Binder | EC50 [1] [nM] | binding result [2]
1 | ATCCATGGGGCGGAGATGAGGGGGAGGAGGGCGGGTACCCGGTTGAT (ssDNA) [A8] | 544 | –
2 | ATCTAGGACTGGGTGGGAAGGGATGGGAAAAATGTCCGCGCCTCGAT (ssDNA) [InlA aptamer SEQ 22] | – | binds
3 | ATCAGCAACAAGTGTGGGTAAGGGGAGGGCGGGAATGGGATGATGAT (ssDNA) [InlA aptamer SEQ 23] | – | binds
4 | ATCGGATGTGGGCAGGGGGGGGTGGGAAACGATTACAGACACAAGAT (ssDNA) [InlA aptamer SEQ 24] | – | binds
5 | ATCGGGTTATAGTTAGCGGGTAGGGGAGGGAGGGTAGATAGCTCGAT (ssDNA) [InlA aptamer SEQ 25] | – | binds
